From the supplement of paper PMC9732359
± gives the uncertainty stated by the source.

assay: protein stability index of a GFP-peptide fusion (yeast GPS) (PSI 1-4); higher = more stable; sorted into four equal gates, so the index is relative within each strain; settings: pdr5∆
Summary of the method: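 The protein stability index of a peptide was calculated by multiplying its read frequency in each gate by that gate's number and adding the products. The peptides were tiled 17-residue stretches of yeast proteins, fused downstream of GFP on a Cherry-expressing plasmid and carried in yeast as a pooled library. Mid-log cultures in leucine-free medium were sorted into four equal gates by GFP/Cherry ratio, and each gate's plasmids were PCR-amplified and Illumina-sequenced.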

Sequence | protein stability index
DMATGSNDTTAFNDSCV [SRB8] | 3.07 ± 0.06
DMPCDVLAKRMANLSQI [SCL1] | 1.4 ± 0.064
DMVMATVKKGKPELRKK [RPL23A] | 3.35 ± 0.18
DNDTVVTNDDKSDDDDH [SRB8] | 2.88 ± 0.15
DNGLGPLKYAPHLPFSK [SWI3] | 3.22 ± 0.069
DNMITGVTKGYKYKMRY [RPL9A] | 3.3 ± 0.14
DNPDQGISDMCRLFFTE [YCS4] | 3.63 ± 0.15
DNSEYSRNGDFPRTRFE [RPN10] | 3.12 ± 0.22
DNSVEQGRRLGESIMSE [MCD1] | 3.41 ± 0.22
DNTARVIFDASIKDTQN [BRN1] | 2.06 ± 0.064
DNTSHDEQDDDNVNSTT [BRN1] | 3.19 ± 0.088
DNVDDIGEFNVSMYQNS [YDL088C/ASM4] | 3.05 ± 0.28
DNYFNLQLNEAEEFVAG [SMX3] | 2.8 ± 0.16
DPAHSLNYTVINFKSRE [AAR2] | 3.1 ± 0.059
DPEEVEQQVAEEATTEE [RPS0A] | 3.33 ± 0.097
DPKSPTKRSIAIVFEEI [YMR129W/POM152] | 2.97 ± 0.087
DPLNSNIFSEAVKNKYN [PRP28] | 2.74 ± 0.11
DPQQVFDERIKFANQLH [RPN3] | 1.97 ± 0.12
DPSGSYFPWKATAIGKG [PRE8] | 2.68 ± 0.11
DQDRGAARHKQHEQGTF [RRI2] | 2.99 ± 0.23
DQEKKYGMSITETFEKP [RPB2] | 3.4 ± 0.18
DQFQWILRKPGKDCKLQ [RRI2] | 3.25 ± 0.17
DQHVINILWAIYNSASK [YCS4] | 2.22 ± 0.048
DQIAVCEISGSIEQLRN [BRN1] | 3.26 ± 0.19
DQNNKKMVGLRGFNNQI [SNF2] | 3.22 ± 0.072

Sequence | protein stability index
DQSISKLQSWDKVSSCF [NNF1] | 1.59 ± 0.069
DQVLNLCLTEFENCYLE [FAS1] | 3.2 ± 0.099
DRCVDPEDPYFNTLVRI [DIS3] | 3.41 ± 0.11
DRFKPNLDIAKDLIRTD [MED4] | 3.34 ± 0.19
DRGIANIRNNIESQNLD [SRB4] | 3.34 ± 0.12
DRKSIMPLKILLATKQH [CSN12] | 1.19 ± 0.055
DRNNSTNQIFQSRRYNL [SIN4] | 2.93 ± 0.049
DRVVSSDSLDIAQGIDL [SRP72] | 2.6 ± 0.062
DRYGNRYFWLDHNGVPF [ITC1] | 3.18 ± 0.098
DSEKHIDFAPTSPFGGA [RPS9A] | 2.65 ± 0.06
DSETSDPNEVEIKKLLA [DIS3] | 3.07 ± 0.069
DSIASVLSPDSNIMSDS [GAL11] | 2.98 ± 0.073
DSIGSTRVEGSGGGDSE [RPT6] | 2.65 ± 0.11
DSILNYAKSEFDNVASV [ECM29] | 3.14 ± 0.15
DSKKIKVDSPDDPFMTK [GAL11] | 2.57 ± 0.074
DSLASELTLAEQQVKEA [SMC4] | 3.53 ± 0.11
DSNYKWDLSVEDALYLG [PRE2] | 3.35 ± 0.082
DSQDYILSINAIDYEPE [SMC1] | 3.06 ± 0.058
DSRLSRKQIDETQVLVS [BRR2] | 1.83 ± 0.073
DSSGVNDLHHSEKKYAE [RPN3] | 3.24 ± 0.16
DSTDNENSGKEMDEKSY [LIN1] | 3.26 ± 0.14
DSTNLSDDAAQFMKRFP [ECM29] | 2.79 ± 0.073
DSVILASSKAVTRGISV [PRE1] | 2.42 ± 0.048
DSYGQGSMTKTWYVGNS [SSN2] | 3.09 ± 0.16
DTIDNVKSKIQDKEGIP [RPS31] | 3.46 ± 0.089

Sequence | protein stability index
DTLKLRENLHILNEVFT [RRP6] | 2.87 ± 0.06
DTLNETNLKMKRKWSYV [RRP43] | 2.56 ± 0.04
DTNVVLQAIDLLENPNC [DIS3] | 2.75 ± 0.063
DTPEGEACGLVKNLALM [RET1] | 2.01 ± 0.13
DTRFGGRMDMTRLYDYE [SSN2] | 3.23 ± 0.081
DTRITHLLRQTNAFLDS [SNF2] | 1.47 ± 0.033
DTVSWFKQKYDADVLDK [RPL11A] | 1.74 ± 0.044
DVECIKAKSHFTNIISR [YJL039C/NUP192] | 3.1 ± 0.098
DVKKRTYEAIDVPGREL [RPB2] | 3.35 ± 0.16
DVKVIMATNKIETLDPA [RPT2] | 2.96 ± 0.093
DVLHPNRANVSKDELRE [RPS24A] | 3.29 ± 0.11
DVLTLENIQEGTSLTIQ [CDC53] | 3.22 ± 0.14
DVNLDVRIHSIQVLTEA [IRR1] | 2.84 ± 0.2
DVPSEDDPTQLVSRGGC [RPO21] | 3.06 ± 0.15
DVSLLLQRDLFIRLPHW [RGR1] | 2.51 ± 0.063
DVSQLIAGINKKKGLDE [PRP28] | 3.64 ± 0.11
DVSRVAAVETLYQDMAA [RPL20A] | 2.67 ± 0.08
DVTAIQTWSYLSLYSTD [ECM29] | 1.91 ± 0.036
DWESDLHIHLNQILQTE [YDL116W/NUP84] | 3.07 ± 0.087
DWNKRFSHLAGGKIINK [BRR2] | 3.33 ± 0.14
DYLNAELGEFFVNGVAT [FAS2] | 2.79 ± 0.24
EAAFRNIKTIAETLAEE [RPS5] | 3.28 ± 0.076
EAEVTAEVNGGDDEATE [BRR2] | 3.24 ± 0.12
EAFNDGNENFEDFDVEH [RPO26] | 3.15 ± 0.086
EAHPTKVKNFGVWVRYD [RPL20A] | 2.96 ± 0.056
